Test results published in the supplement of paper PMC7877785.
± gives the uncertainty stated by the source.

Experiment: self-splicing fitness, log relative to wild type (ln ratio); higher = more splicing; Tetrahymena group I intron in knt gene, E. coli kanamycin selection, DiMSum; sequences stand for … in CUCUCU…GGAGGGAAAAGUUAUCAGGCAUGCACCUGGUAGCUAGUCUUUAAACCAAUAGAUUGCAUCGGUUUAAAAGGCAAGACCGUCAAAUUGCGGGAAAGGGGUCAACAGCCGUUCAGUACCAAGUCUCAGGGGAAACUUUGAGAUGGCCUUGCAAAGGGUAUGGUAAUAAGCUGACGGACAUGGUCCUAACCACGCAGCCAAGUCCUAAGUCAACAGAUCUUCUGUUGAUAUGGAUGCAGUUCACAGACUAAAUGUCGGUCGGGGAAGAUGUAUUCUUCUCAUAAGAUAUAGUCGGACCUCUCCUUAAUGGGAGCUAGCGGAUGAAGUGAUGCAACACUGGAGCCGCUGGGAACUAAUUUGUAUGCGAAAGUAUAUUGAUUAGUUUUGGAGUACUCGUGGUCG
In short: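 Fitness was computed with DiMSum as the error-weighted combination of replicate fold changes, kanamycin versus none, each normalised to wild type. The library randomised all eight intron nucleotides of the P1ex region, with the intron placed in the knt kanamycin-resistance gene on pET-22b(+) in E. coli BL21(DE3). Six replicate transformations were grown overnight at 37°C or 30°C on LB agar with or without 25 μg/mL kanamycin, plus 100 μg/mL carbenicillin, 50 μM IPTG and 0.2% rhamnose. Pooled colonies were amplicon-sequenced on an Illumina HiSeq 2500.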

Sequence	self-splicing fitness (ln) (30 °C)	self-splicing fitness (ln) (37 °C)
GUGAAGCAAUAUUACGAUCA	-0.337 ± 0.11	0.465 ± 0.13
GCCGAGCAAUAUUACGCUUC	-2.53 ± 0.18	-1.65 ± 0.25
UGACAGCAAUAUUACGCUAA	-1.22 ± 0.086	-0.325 ± 0.093
CCUUAGCAAUAUUACGGGCG	-1.64 ± 0.083	-0.95 ± 0.093
UCUUAGCAAUAUUACGAAUU		-2.06 ± 0.24
GGCUAGCAAUAUUACGAUUU	-0.855 ± 0.093	0.68 ± 0.12
CACAAGCAAUAUUACGAGGG	-2.28 ± 0.12	-2.48 ± 0.14
GCCAAGCAAUAUUACGACAG	-3.63 ± 0.2	-3.8 ± 0.39
GCCAAGCAAUAUUACGAGGU	-3.83 ± 0.18	-2.74 ± 0.26
GAGAAGCAAUAUUACGACAC	-0.317 ± 0.15	0.578 ± 0.18
AAGAAGCAAUAUUACGUCUG	-0.345 ± 0.054	0.0995 ± 0.071
GAGUAGCAAUAUUACGUGAA	-2.5 ± 0.16	-1.95 ± 0.15
GCCAAGCAAUAUUACGCUGU	-2.26 ± 0.12	-1.36 ± 0.13
UCUUAGCAAUAUUACGGUUG	-3.34 ± 0.32	-2.18 ± 0.43
UAGCAGCAAUAUUACGAGAA	-2.19 ± 0.23	-0.949 ± 0.18
AGUUAGCAAUAUUACGCAUC	-3.63 ± 0.43	-1.68 ± 0.23
UGACAGCAAUAUUACGCUCA	-0.115 ± 0.11	-0.155 ± 0.1
CCUGAGCAAUAUUACGCUGC	-4.04 ± 0.37	-2.34 ± 0.22
UUUGAGCAAUAUUACGCGUC	-2.03 ± 0.22	-2.49 ± 0.26
UACAAGCAAUAUUACGGCGU	-1.14 ± 0.11	-0.846 ± 0.098
CGGGAGCAAUAUUACGCGGG	-4.1 ± 0.37	-2.83 ± 0.3
ACUGAGCAAUAUUACGCGAU	-3.36 ± 0.25	-1.71 ± 0.14
UAUCAGCAAUAUUACGGCCU	-1.64 ± 0.1	0.0592 ± 0.12
CUGAAGCAAUAUUACGCUCG	-0.21 ± 0.086	-0.613 ± 0.087
CCUAAGCAAUAUUACGGCUC	-3.13 ± 0.23	-1.56 ± 0.21

Sequence	self-splicing fitness (ln) (30 °C)	self-splicing fitness (ln) (37 °C)
ACAGAGCAAUAUUACGCCAU	-3.46 ± 0.42	-1.97 ± 0.23
GAUGAGCAAUAUUACGCGCC	-3.17 ± 0.3	-2.26 ± 0.2
CGGCAGCAAUAUUACGAACG	-1.11 ± 0.11	0.693 ± 0.15
CCAUAGCAAUAUUACGAUGU	-3.94 ± 0.22	-2.71 ± 0.2
GCAUAGCAAUAUUACGACGG		-1.01 ± 0.41
UGCAAGCAAUAUUACGCCUG	-2.3 ± 0.13	-2.5 ± 0.25
AGGCAGCAAUAUUACGGUGU	-2.38 ± 0.13	-1.73 ± 0.15
CGGGAGCAAUAUUACGUGUA	-4.05 ± 0.39	-1.47 ± 0.22
GAACAGCAAUAUUACGGUCA	-0.702 ± 0.062	-1.05 ± 0.066
AGACAGCAAUAUUACGCCUU	-2.75 ± 0.097	-0.727 ± 0.086
AUCGAGCAAUAUUACGAAAA	-3.6 ± 0.39	-2.1 ± 0.32
GAAUAGCAAUAUUACGGGCA	-1.19 ± 0.083	-1.2 ± 0.085
AUUAAGCAAUAUUACGGCAG	-1 ± 0.11	0.0222 ± 0.13
UCUCAGCAAUAUUACGGACC		-2.13 ± 0.34
UGGCAGCAAUAUUACGCGUG	-1.25 ± 0.14	-0.356 ± 0.14
GGAUAGCAAUAUUACGACCG	-1.59 ± 0.26	-1.08 ± 0.28
GGACAGCAAUAUUACGUAUG	-1.13 ± 0.073	-0.419 ± 0.08
AGCGAGCAAUAUUACGUACC	-0.987 ± 0.18	-0.589 ± 0.19
CCCAAGCAAUAUUACGACCG	-3.32 ± 0.24	-3.03 ± 0.47
CUCGAGCAAUAUUACGGCGA	-3.88 ± 0.46	-2.61 ± 0.36
AACUAGCAAUAUUACGCCGG	-1.63 ± 0.14	-1.19 ± 0.17
AGUCAGCAAUAUUACGGCGA	-0.359 ± 0.091	0.00759 ± 0.14
CGAUAGCAAUAUUACGUAAA	-2.6 ± 0.32	-0.509 ± 0.26
GGCUAGCAAUAUUACGGAAC	-1.09 ± 0.1	-0.447 ± 0.13
GACUAGCAAUAUUACGGUUA	-0.116 ± 0.083	0.109 ± 0.085

Sequence	self-splicing fitness (ln) (30 °C)	self-splicing fitness (ln) (37 °C)
CAAAAGCAAUAUUACGAUCU	-2.14 ± 0.078	-0.593 ± 0.09
GACCAGCAAUAUUACGCCGG	-2.59 ± 0.16	-2.58 ± 0.29
UAAAAGCAAUAUUACGAUGC	-3.82 ± 0.29	-2.3 ± 0.18
UACCAGCAAUAUUACGUUAG	-1.18 ± 0.068	-1.16 ± 0.067
AAGGAGCAAUAUUACGUAUU	-2.95 ± 0.12	-2.34 ± 0.15
AGCCAGCAAUAUUACGUACC	-2.95 ± 0.25	-0.263 ± 0.13
GACAAGCAAUAUUACGACGC	0.305 ± 0.1	0.643 ± 0.13
AGUAAGCAAUAUUACGUCCA	-0.878 ± 0.12	-0.0078 ± 0.13
AUGGAGCAAUAUUACGAUUG	-2.3 ± 0.25	-3.12 ± 0.33
GCAUAGCAAUAUUACGCCAU	-4.39 ± 0.46	-2.23 ± 0.28
GCGCAGCAAUAUUACGAGGC	-2.7 ± 0.35	-1.29 ± 0.24
AGACAGCAAUAUUACGUACC	-0.256 ± 0.11	-0.253 ± 0.14
CACAAGCAAUAUUACGUAAG	-0.372 ± 0.047	0.157 ± 0.065
GUUCAGCAAUAUUACGCGCG	-0.45 ± 0.31	-0.279 ± 0.23
AUCUAGCAAUAUUACGUUUC	-2.64 ± 0.35	-2.9 ± 0.47
AAGCAGCAAUAUUACGAGGC	-1.38 ± 0.13	-2.17 ± 0.22
GUAGAGCAAUAUUACGCAAC	-1.79 ± 0.24	-0.94 ± 0.39
UCUAAGCAAUAUUACGUUGU	-4.19 ± 0.24	-1.86 ± 0.15
AGUGAGCAAUAUUACGAUUA	-2.67 ± 0.3	-1.47 ± 0.37
GACCAGCAAUAUUACGCCAA	-2.99 ± 0.22	-1.45 ± 0.15
CAUUAGCAAUAUUACGCCCU	-2.38 ± 0.22	-1.55 ± 0.24
UGGUAGCAAUAUUACGCUUG	-0.988 ± 0.092	-0.402 ± 0.11
GAAUAGCAAUAUUACGUGAC	-3.51 ± 0.28	-1.43 ± 0.2
GACCAGCAAUAUUACGCUGC	-3.73 ± 0.22	-1.32 ± 0.15
ACGCAGCAAUAUUACGACGA	-0.25 ± 0.1	0.113 ± 0.12

Sequence	self-splicing fitness (ln) (30 °C)	self-splicing fitness (ln) (37 °C)
UCGCAGCAAUAUUACGCGUA	-1.83 ± 0.12	-0.123 ± 0.11
UUCCAGCAAUAUUACGACGA	-0.529 ± 0.12	0.216 ± 0.15
UAGAAGCAAUAUUACGCGAC	-3.67 ± 0.32	-2.08 ± 0.33
UCCGAGCAAUAUUACGCAGA	-3.65 ± 0.43	-2.49 ± 0.23
UCGCAGCAAUAUUACGGUCC		-1.82 ± 0.24
AUCCAGCAAUAUUACGUACC	-2 ± 0.17	-0.552 ± 0.32
UUUCAGCAAUAUUACGAGUC	-3.12 ± 0.29	-1.97 ± 0.37
GUGCAGCAAUAUUACGCGUA	-1.62 ± 0.13	-0.278 ± 0.1
UCACAGCAAUAUUACGACUG	-2.18 ± 0.098	-0.964 ± 0.12
GACCAGCAAUAUUACGCGAU	-2.28 ± 0.11	-1.17 ± 0.093
CAAUAGCAAUAUUACGAGUA	-2.31 ± 0.21	-2.38 ± 0.2
GACGAGCAAUAUUACGAUGG	-3.7 ± 0.17	-3 ± 0.2
GUAGAGCAAUAUUACGUAAG	-2.29 ± 0.26	-0.825 ± 0.27
CAUGAGCAAUAUUACGAGCU	-2.78 ± 0.23	
GGAUAGCAAUAUUACGAUGA	-1.04 ± 0.15	-0.858 ± 0.14
AGGGAGCAAUAUUACGAGUA	-2.7 ± 0.31	-1.76 ± 0.2
CAUGAGCAAUAUUACGCAGG	-3.17 ± 0.19	-1.51 ± 0.2
AGUAAGCAAUAUUACGCACC	-0.949 ± 0.24	-0.969 ± 0.25
UGAAAGCAAUAUUACGCCUC	-1.85 ± 0.28	
CUCUAGCAAUAUUACGGGUC	-5.03 ± 0.34	-2.21 ± 0.18
CGGAAGCAAUAUUACGUAUG	-1.49 ± 0.069	-0.904 ± 0.083
CCUUAGCAAUAUUACGGGCA	-3.91 ± 0.33	-3.36 ± 0.35
